Measured values as given in the supplement of paper PMC10567573.
± gives the standard deviation.

Assay: protein stability index of a GFP-peptide fusion (GPS, HEK-293T) (PSI 1-6); higher = more stable
[1] = treatment: DMSO, c terminus: a fixed tail appended
[2] = treatment: MLN4924 1 uM, 8 h, c terminus: a fixed tail appended
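Also: 24-mer peptide tiles fused after GFP, lentivirally expressed, FACS-sorted into six equal bins by GFP/DsRed ratio, decoded by Illumina sequencing, PSI is the read-weighted mean bin number.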

| Sequence | protein stability index [1] | protein stability index [2] | protein stability index (treatment: DMSO, c terminus: native) | protein stability index (treatment: MLN4924 1 uM, 8 h, c terminus: native) |
| --- | --- | --- | --- | --- |
| GYGRAPGGLSLHDYKLLKPSLAVN [JUNB] | 2.92 ± 0.035 | 2.88 ± 0.73 |  |  |
| GYVSQQGGQRSTPLIIAARNGHAK [FEM1B] | 3.74 ± 0.15 | 3.8 ± 0.34 |  |  |
| HAAHVVCRELGYVEAKSWTASSSY [LOXL2] | 2.31 ± 0.29 | 2.28 ± 0.17 |  |  |
| HALSGHAKVKPFDPKITCKQECLI [TPH1] | 2.13 ± 0.27 | 2.12 ± 0.19 |  |  |
| HDGEDVACPQGGVQYGAGVACSET [LOXL2] | 4.99 ± 0.31 | 5.42 ± 0.32 |  |  |
| HEALSRLWELCHLWLRPEVHTKEQ [ZNF396] | 2.11 ± 0.45 | 2.4 ± 0.14 |  |  |
| HGSPQLGEGMFQHQTSVAHQPVVR [TBX5] | 4.19 ± 0.28 | 4.13 ± 0.17 |  |  |
| HKKDCAREKPFKCQECGKTFRVSS [ZNF75A] | 3.45 ± 0.38 | 3.65 ± 0.41 |  |  |
| HKPLLICSCEWMAAMFGGSFVESA [RHOBTB1] | 2.72 ± 0.79 | 2.46 ± 0.85 |  |  |
| HLSSPAKNFFKKAAAALFGGKKDK [PLK2] | 2.16 ± 0.49 | 2.53 ± 0.55 |  |  |
| HLTRGRKMAHVIAACLYLVCRTEG [BRF1] | 2.53 ± 0.99 | 2.6 ± 0.48 |  |  |
| HMVSDGSWVVRVQAAKLLGSMEQV [INTS4] | 2.48 ± 0.74 | 2.1 ± 0.21 |  |  |
| HNCAHFCINIPGSYVCRCKQGYIL [MATN2] | 2.48 ± 0.2 | 2.71 ± 0.27 |  |  |
| HPVCSLCWSRDGHKLVSASTDNIV [RBBP5] | 2.72 ± 0.28 | 2.95 ± 0.44 |  |  |
| HQEQVEDLTASHDAALLEMENNHT [MTUS2] | 5.51 ± 0.2 | 5.4 ± 0.3 |  |  |
| HQQNKIKDLQKEQKTLQVKCQHYK [CEP70] | 4.11 ± 0.28 | 4.6 ± 0.21 |  |  |
| HQQVEEALSFTLLGSAPLDQEPLL [NEK8] | 3.69 ± 0.25 | 3.75 ± 0.12 |  |  |
| HRGHCERRHRLGGVGAVPGPGTPT [ZBTB22] | 4.2 ± 0.26 | 4.36 ± 0.16 |  |  |
| HRGPSGHTEASAQRSHMGKLKEPQ | 5.1 ± 0.38 | 4.87 ± 0.5 |  |  |
| HRPSLNSVSLQINCQSVAQMNLLQ [DLC1] | 2.4 ± 0.4 | 2.52 ± 0.32 |  |  |
| HSIINALKAKLQMTEAALALSEQK [LRRC45] | 2.63 ± 0.087 | 2.74 ± 0.27 |  |  |
| HSQNLAKQQRNEVSFVIHNLPIIA [SEPHS2] | 2.14 ± 0.089 | 2.25 ± 0.22 |  |  |

| Sequence | protein stability index [1] | protein stability index [2] | protein stability index (treatment: DMSO, c terminus: native) | protein stability index (treatment: MLN4924 1 uM, 8 h, c terminus: native) |
| --- | --- | --- | --- | --- |
| HSTLEYKVKERLGTLKNPPKKKMK [LCOR] | 4.47 ± 0.26 | 4.73 ± 0.28 |  |  |
| HTLLNELERNPNGVADGVIKSVLW [CDKL4] | 2.58 ± 0.49 | 2.7 ± 0.4 |  |  |
| HTRSLNSIIHQMEKFSSSLHELSS [FBF1] | 2.97 ± 0.21 | 3.06 ± 0.48 |  |  |
| IAEVCCTSIVYATEKKQTKVEFPE [KCTD10] | 3.42 ± 0.18 | 3.9 ± 0.39 |  |  |
| IAKAEETHSSLSQELQARLQTVTR [CCDC89] | 4.25 ± 0.088 | 4.13 ± 0.2 |  |  |
| IATGPFVAFGIEADDESLLRTSNG [DNAAF3] | 3.9 ± 0.16 | 4.01 ± 0.22 |  |  |
| IAVRKSRDKAKMRNLETQHKVLEL [CEBPB] | 3.14 ± 0.36 | 3.54 ± 0.12 |  |  |
| ICARACNTTLTQYQLLATHVPTVW [RHOBTB1] | 2.52 ± 0.49 | 2.43 ± 0.7 |  |  |
| IEIVHISTVQILTEGFPPGGGNAR [ZFYVE21] | 2.51 ± 0.67 | 2.72 ± 0.74 |  |  |
| IEKEEQEKKRKEEEERRRREEEER [ACBD3] | 5.48 ± 0.21 | 5.66 ± 0.097 |  |  |
| IESERALISQCGKPVVNVSYRPAY [DUSP5] | 2.6 ± 0.5 | 2.82 ± 0.13 |  |  |
| IFALYSSLKFKSRVPQTWSKRLYG [PLD5] |  | 2.83 ± 1.7 |  |  |
| IGGFTALHYAAMHGRARIARLMLE [ASB7] | 2.15 ± 0.23 | 2.31 ± 0.22 |  |  |
| IGSTSESKDWEEVVVESMEQDRIP [MIA2] | 5.08 ± 0.32 | 5.11 ± 0.26 |  |  |
| IHTGKKPHVCSLCGKAFYKKYRLT [ZNF649] | 2.67 ± 0.42 | 2.92 ± 0.62 |  |  |
| IICYSITDRRSFHEVREFKQLIYR [RIT1] | 2.41 ± 0.25 | 2.53 ± 0.46 |  |  |
| IILTATDGLFDNMPDYMILQELKK [PPTC7] | 2.31 ± 0.32 | 2.22 ± 0.19 |  |  |
| IIRLVRVFRIFKLSRHSKGLQILG [KCNA4] | 2.25 ± 0.53 | 2.3 ± 0.4 |  |  |
| ILVSVAAGVSLSTLEELLPPNTRV [PYCR3] | 2.77 ± 0.49 | 2.62 ± 0.54 |  |  |
| IMAFFLCLGLALGAVFSFLFRAIV [SLC29A1] | 1.94 ± 0.14 | 2.19 ± 0.21 |  |  |
| INPYSNRESRILFSTWNLDHIIEK [DFFB] | 2.54 ± 0.1 | 2.61 ± 0.099 |  |  |
| IPKCSKIVIDFDSINSRPSQKLQ [DCTD] |  |  | 3.14 ± 0.31 | 3.38 ± 0.32 |

| Sequence | protein stability index [1] | protein stability index [2] | protein stability index (treatment: DMSO, c terminus: native) | protein stability index (treatment: MLN4924 1 uM, 8 h, c terminus: native) |
| --- | --- | --- | --- | --- |
| IPSWQIRTVKLIRYVSNWDFFIVG [PKD2L1] | 2.79 ± 0.52 | 2.93 ± 0.7 |  |  |
| IQIAFEEVPQLPPRASISHVTCVD [C2CD2L] | 2.39 ± 0.16 | 2.46 ± 0.23 |  |  |
| IQLFEELQELLTHDTKDQSPSRAP [HMOX1] | 3.3 ± 0.29 | 3.61 ± 0.45 |  |  |
| IRERPAAIPIEIKSIDDTSNFDDF [STK38L] | 4.31 ± 0.3 | 4.92 ± 0.19 |  |  |
| ISYSSMLGAVAGLALGPILRLYKH [MFSD9] | 2.58 ± 0.5 | 2.13 ± 0.25 |  |  |
| ITEKIDVAFVDRADIKQYIGPPSA [TRIP13] | 3.6 ± 0.15 | 3.54 ± 0.58 |  |  |
| ITPTKKIELDRTIMPDGTIVTTVT [C2CD2L] | 2.67 ± 0.25 | 2.79 ± 0.22 |  |  |
| ITRVLYEVFIEWGISAKVFGATTN [ZBED1] | 3.15 ± 0.88 | 3.04 ± 0.2 |  |  |
| IVGFGLYGSIHGPTDYQVNIQIIE [BTBD1] | 2.63 ± 0.4 | 2.6 ± 0.47 |  |  |
| IVGYAFHFPHLLSPQIQRSAHRAL [TMEM175] | 2.23 ± 0.24 | 2.54 ± 0.51 |  |  |
| IVLDRALHIPMYFFLAILSCSEIC [OR10K2] | 3.1 ± 0.18 | 3.19 ± 0.29 |  |  |
| IVSTQITRPSGNNGNRRRRKLRKT [PHTF1] | 4.35 ± 0.35 | 4.46 ± 0.23 |  |  |
| IVTLRHVLAAKERRCGELKRKLGL [TPD52L3] | 2.2 ± 0.11 | 2.18 ± 0.13 |  |  |
| IWKLNLQTFQWVKLPATMPEPVYF [KLHDC10] | 2.82 ± 0.7 | 2.63 ± 0.33 |  |  |
| IWLDNLHCTGNEATLAACTSNGWG [LOXL2] | 2.18 ± 0.31 | 2.27 ± 0.3 |  |  |
| IYAHRVILSACSPYFRAMFTGELA [KLHL20] | 3.16 ± 0.56 | 2.9 ± 0.65 |  |  |
| KAASLARNLAKRRRTYLGGAAGRS [RSPH3] | 3.09 ± 0.34 | 3.56 ± 0.45 |  |  |
| KAFSRSSGLFNHRGIHNIQKRYHC [ZSCAN9] | 2.63 ± 0.39 | 2.45 ± 0.14 |  |  |
| KAILKNISVLAFSVCFIFTITIGM [SLC29A1] | 3.19 ± 0.29 | 2.96 ± 0.44 |  |  |
| KAKPEPDILEEEKIYAYPSNITSE [TMEM192] | 4.82 ± 0.2 | 4.83 ± 0.2 |  |  |
| KALLYLPIAPEVEDPEENPYGPPP [RBBP5] | 3.94 ± 0.31 | 4.07 ± 0.42 |  |  |
